Numbering of substitutions follows the chain as printed. Numbers in names are those of the source. Each block holds one binder with its values, some of them ahead of it.
How the values were obtained:
[1] = target: T1, human FcγRIIb extracellular domain with C-terminal His-tag (human, UniProt P31994 43-217); test: SPR; FcγRIIb bound amount per unit captured Ab
T1 construct: extracellular domain; also called hFcγR IIb
T1 sequence (looked up): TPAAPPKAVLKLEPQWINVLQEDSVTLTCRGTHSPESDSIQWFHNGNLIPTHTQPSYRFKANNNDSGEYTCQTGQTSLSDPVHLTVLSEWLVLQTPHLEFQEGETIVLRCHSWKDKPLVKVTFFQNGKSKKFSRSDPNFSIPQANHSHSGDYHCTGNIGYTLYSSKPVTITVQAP

[2] = target: T2, human FcγRIa extracellular domain with C-terminal His-tag (human, UniProt P12314 16-292); test: SPR Biacore T200, Ab captured via Fab-kappa, pH 7.4, 25C;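 also: each FcγR flowed as analyte over the captured antibodies, KD derived by 1:1 Langmuir or steady-state affinity fitting depending on the receptor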
T2 construct: extracellular domain; also called hFcγR Ia; hFcγRIa
Experimental: (§1) The interaction between the generated antibodies and human FcγRs was analyzed using Biacore T200. 50 mM Na-Phosphate, 150 mM NaCl, 0.05% Tween20 (pH 7.4) was used as the running buffer, and the assay was performed at 25° C. For the sensor chip, Series S SA (GE Healthcare) chips onto which CaptureSelect Human Fab-kappa Kinetics Biotin Conjugate (Thermo Fisher Scientific) was immobilized were used. The antibodies of interest were captured onto these chips and each FcγR diluted in the running buffer was allowed to interact with them. Chips were regenerated with 10 mM Glycine-HCl (pH 1.5) and 25 mM NaOH, and assay was performed by repeatedly capturing antibodies. The dissociation constants KD (mol/L) for FcγRs of each antibody were calculated using Biacore T200 Evaluation Software 2.0, and using the 1:1 Langmuir binding model for FcγRIa and FcγRIIIa and the steady state affinity model for FcγRIIa. For FcγRIIb, the binding amount of FcγRIIb per unit amount of antibody was calculated by correcting the binding amount of FcγRIIb obtained from the sensorgram obtained by the measurement with the amount of antibody captured onto the chip surface.

[3] = target: T3, human FcγRIIa R allotype extracellular domain with C-terminal His-tag (human, UniProt P12318 34-217); test: as above
T3 construct: extracellular domain; also called hFcγR IIa R
T3 sequence (looked up): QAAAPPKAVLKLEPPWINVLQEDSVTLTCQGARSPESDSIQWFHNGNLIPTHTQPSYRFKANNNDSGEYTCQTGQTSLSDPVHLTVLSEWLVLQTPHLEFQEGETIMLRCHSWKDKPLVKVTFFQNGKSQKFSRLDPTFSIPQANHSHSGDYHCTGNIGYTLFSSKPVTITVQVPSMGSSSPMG
Experimental: as §1

[4] = target: T4, human FcγRIIa H allotype extracellular domain with C-terminal His-tag (human, UniProt P12318 34-217); test: as above
T4 construct: extracellular domain; also called hFcγR IIa H
T4 sequence (looked up): T3 sequence (looked up) with R134H
Experimental: as §1

[5] = target: T5, human FcγRIIIa F allotype extracellular domain with C-terminal His-tag (human, UniProt P08637 17-208); test: as above
T5 construct: extracellular domain; also called hFcγR IIIa F
Experimental: as §1

[6] = target: T6, human FcγRIIIa V allotype extracellular domain with C-terminal His-tag (human, UniProt P08637 17-208); test: as above
T6 construct: extracellular domain; also called hFcγR IIIa V
Experimental: as §1

human FcRn [7] = target: T7, human FcRn (human, UniProt P55899 24-290; P61769 21-119); test: SPR; KD of 04H1389-G1m/04L1615-k0MT divided by KD of variant
T7 construct: Prepared by the method of WO 2010/107110; also called hFcRn

[8] = target: T2, human FcγRIa extracellular domain with …; test: as above
[9] = target: T3, human FcγRIIa R allotype extracellular …; test: as above
[10] = target: T4, human FcγRIIa H allotype extracellular …; test: as above
[11] = target: T6, human FcγRIIIa V allotype extracellular …; test: as above
[12] = target: T1, human FcγRIIb extracellular domain with …; test: SPR; binding amount divided by that of 04H1389-G1m/04L1615-k0MT
human FcRn [13] = target: T7, human FcRn; test: SPR Biacore T200, Ab captured via Fab-kappa, pH 6.0, steady state

T6 sequence (P08637 17-208 F176V): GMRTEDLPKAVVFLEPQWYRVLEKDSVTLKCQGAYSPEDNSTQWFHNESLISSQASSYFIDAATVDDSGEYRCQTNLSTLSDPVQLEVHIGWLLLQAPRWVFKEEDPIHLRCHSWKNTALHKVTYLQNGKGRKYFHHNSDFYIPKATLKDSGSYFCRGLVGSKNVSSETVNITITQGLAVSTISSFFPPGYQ
T5 sequence (P08637 17-208): as the sequence (P08637 17-208 F176V) above, with V160F counted along it
T2 sequence (P12314 16-292): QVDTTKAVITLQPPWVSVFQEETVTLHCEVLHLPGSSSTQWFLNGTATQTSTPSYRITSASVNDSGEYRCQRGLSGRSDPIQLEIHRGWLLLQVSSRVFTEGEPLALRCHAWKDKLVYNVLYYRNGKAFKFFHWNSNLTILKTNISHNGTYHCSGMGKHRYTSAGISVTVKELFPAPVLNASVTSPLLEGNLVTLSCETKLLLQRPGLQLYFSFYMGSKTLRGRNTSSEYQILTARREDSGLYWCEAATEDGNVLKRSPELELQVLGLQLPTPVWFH

B1: 04H1389-Km473/04L1615-k0MT//04H1389-Hm482/04L1615-k0MT (antibody)
heavy 1: EVQLVESGGGLVKPGGSLRLSCAASGFTFSSKTMNWVRQAPGKGLEWVSSISTQSHYIYYAESVKGRFTISRDNAKNSLYLQMNSLRAEDTAVYYCARYGKREDMLWVFDYWGQGTLVTVSSASTKGPSVFPLAPSSKSTSGGTAALGCLVKDYFPEPVTVSWNSGALTSGVHTFPAVLQSSGLYSLSSVVTVPSSSLGTQTYICNVNHKPSNTKVDKRVEPKSCDKTHTCPPCPAPEFQWGPMVFLFPPKPKDVLMISRTPEVTCVVVDVSDEEPEVKFNWYVDGVEVHNAKTKPREEQYNATYRVVSVLPVLHQDWLNGKEYKCKVSNDALPAPIEKTISKAKGQPREPQVCTLPPSREEMTKNQVSLWCLVKGFYPSDIAVEWESNGQPENNYKTTPPVLDSDGSFFLYSKLTVDKSRWQQGNVFSCSVMHEALHAHTTRKELSLSP
heavy 2: EVQLVESGGGLVKPGGSLRLSCAASGFTFSSKTMNWVRQAPGKGLEWVSSISTQSHYIYYAESVKGRFTISRDNAKNSLYLQMNSLRAEDTAVYYCARYGKREDMLWVFDYWGQGTLVTVSSASTKGPSVFPLAPSSKSTSGGTAALGCLVKDYFPEPVTVSWNSGALTSGVHTFPAVLQSSGLYSLSSVVTVPSSSLGTQTYICNVNHKPSNTKVDKRVEPKSCDKTHTCPPCPAPELLAGPSVFLFPPKPKDVLMISRTPEVTCVVVDVSHEEPEVKFNWYVDGVEVHNAKTKPREEQYNATYRVVSVLPVLHQDWLNGKEYKCKVSNDALPKPDEETISKAKGQPREPQVYTLPPSRCEMTKNQVSLSCAVKGFYPSDIAVEWESNGQPENNYKTTPPVLDSDGSFFLVSKLTVDKSRWQQGNVFSCSVMHEALHAHTTRKELSLSP
light: DIVMTQSPLSLPVTPGEPASISCQGPSTGVGDYNYVHWYQQKPGQAPRLLIYFTSKKPSGVPDRFSGSGSGTDFTLKISRVEAEDVGVYYCQTYAAPLGPMFGQGTKLEIKRTVAAPSVFIFPPSDEQLKSGTASVVCLLNNFYPREAKVQWKVDNALQSGNSQESVTEQDSKDSTYSLSSTLTLSKADYEKHKVYACEVTHQGLSSPVTKSFNRGEC
notes: Heterodimerized antibody with N434A/Y436T/Q438R/S440E
- Binding amount [1]: 0.024
- Kd [2]: 0.062 nM
- Kd [3]: 180 nM
- Kd [4]: 87 nM
- Kd [5]: 2.6 nM
- Kd [6]: 1.3 nM
- Relative value to KD between G1m and hFcRn (human FcRn [7]): 2.8
- Relative value to KD between G1m and hFcγRs [8]: 0.7
- Relative value to KD between G1m and hFcγRs [9]: 8.2
- Relative value to KD between G1m and hFcγRs [10]: 12.3
- Relative value to KD between G1m and hFcγRs [11]: 705
- Relative binding amount [12]: 2.1
- Kd (human FcRn [13]): 460 nM

B2: 04H1389-Ks461/04L1615-k0MT//04H1389-Hs443/04L1615-k0MT (antibody, human IgG1, kappa)
heavy 1: B1 heavy 1 with I337E, C354Y, A439N, T441Y, R443Q, E445S
heavy 2: B1 heavy 2 with K335A, D337E, C361E, A439N, T441Y, R443Q, E445S
light: B1 light
notes: Heterodimerized antibody
- Binding amount [1]: 0.024
- Kd [2]: 0.03 nM
- Kd [3]: 250 nM
- Kd [4]: 160 nM
- Kd [5]: 1.2 nM
- Kd [6]: 0.56 nM
- Relative value to KD between G1m and hFcRn (human FcRn [7]): 0.8
- Relative value to KD between G1m and hFcγRs [8]: 1.5
- Relative value to KD between G1m and hFcγRs [9]: 5.9
- Relative value to KD between G1m and hFcγRs [10]: 6.7
- Relative value to KD between G1m and hFcγRs [11]: 1630
- Relative binding amount [12]: 2.1
- Kd (human FcRn [13]): 1700 nM

B3: 04H1389-Km481/04L1615-k0MT//04H1389-Hm498/04L1615-k0MT (antibody)
heavy 1: B1 heavy 1 with I337E
heavy 2: B1 heavy 2 with K335A, D337E
light: B1 light
notes: as for B1
- Binding amount [1]: 0.021
- Kd [2]: 0.042 nM
- Kd [3]: 290 nM
- Kd [4]: 210 nM
- Kd [5]: 1.4 nM
- Kd [6]: 0.62 nM
- Relative value to KD between G1m and hFcRn (human FcRn [7]): 2.8
- Relative value to KD between G1m and hFcγRs [8]: 1.1
- Relative value to KD between G1m and hFcγRs [9]: 5.1
- Relative value to KD between G1m and hFcγRs [10]: 5
- Relative value to KD between G1m and hFcγRs [11]: 1470
- Relative binding amount [12]: 1.9
- Kd (human FcRn [13]): 470 nM

B5: 04H1389-Km461/04L1615-k0MT//04H1389-Hm443/04L1615-k0MT (antibody, human IgG1, kappa)
heavy 1: B1 heavy 1 with I337E, A439N, T441Y, R443Q, E445S
heavy 2: B1 heavy 2 with K335A, D337E, A439N, T441Y, R443Q, E445S
light: B1 light
notes: Heterodimerized antibody
- Binding amount [1]: 0.024
- Kd [2]: 0.025 nM
- Kd [3]: 260 nM
- Kd [4]: 190 nM
- Kd [5]: 1.2 nM
- Kd [6]: 0.56 nM
- Relative value to KD between G1m and hFcRn (human FcRn [7]): 0.7
- Relative value to KD between G1m and hFcγRs [8]: 1.8
- Relative value to KD between G1m and hFcγRs [9]: 5.8
- Relative value to KD between G1m and hFcγRs [10]: 5.7
- Relative value to KD between G1m and hFcγRs [11]: 1620
- Relative binding amount [12]: 2.1
- Kd (human FcRn [13]): 1700 nM

B8: 04H1389-Km462/04L1615-k0MT//04H1389-Hm445/04L1615-k0MT (antibody, human IgG1, kappa)
heavy 1: B1 heavy 1 with A439N, T441Y, R443Q, E445S
heavy 2: B1 heavy 2 with A439N, T441Y, R443Q, E445S
light: B1 light
notes: Heterodimerized antibody
- Binding amount [1]: 0.029
- Kd [2]: 0.048 nM
- Kd [3]: 160 nM
- Kd [4]: 74 nM
- Kd [5]: 2.2 nM
- Kd [6]: 1.1 nM
- Relative value to KD between G1m and hFcRn (human FcRn [7]): 0.8
- Relative value to KD between G1m and hFcγRs [8]: 0.9
- Relative value to KD between G1m and hFcγRs [9]: 9.5
- Relative value to KD between G1m and hFcγRs [10]: 14.4
- Relative value to KD between G1m and hFcγRs [11]: 811
- Relative binding amount [12]: 2.6
- Kd (human FcRn [13]): 1700 nM

Next, values leading:

- Binding amount [1]: 0.023
- Kd [2]: 0.028 nM
- Kd [3]: 260 nM
- Kd [4]: 190 nM
- Kd [5]: 1.3 nM
- Kd [6]: 0.6 nM
- Relative value to KD between G1m and hFcRn (human FcRn [7]): 2.8
- Relative value to KD between G1m and hFcγRs [8]: 1.6
- Relative value to KD between G1m and hFcγRs [9]: 5.6
- Relative value to KD between G1m and hFcγRs [10]: 5.6
- Relative value to KD between G1m and hFcγRs [11]: 1500
- Relative binding amount [12]: 2
- Kd (human FcRn [13]): 460 nM
B4: 04H1389-Ks481/04L1615-k0MT//04H1389-Hs498/04L1615-k0MT (antibody)
heavy 1: B1 heavy 1 with I337E, C354Y
heavy 2: B1 heavy 2 with K335A, D337E, C361E
light: B1 light
notes: as for B1

- Binding amount [1]: 0.03
- Kd [2]: 0.047 nM
- Kd [3]: 160 nM
- Kd [4]: 67 nM
- Kd [5]: 2.1 nM
- Kd [6]: 1.1 nM
- Relative value to KD between G1m and hFcRn (human FcRn [7]): 0.8
- Relative value to KD between G1m and hFcγRs [8]: 1
- Relative value to KD between G1m and hFcγRs [9]: 9.1
- Relative value to KD between G1m and hFcγRs [10]: 15.8
- Relative value to KD between G1m and hFcγRs [11]: 830
- Relative binding amount [12]: 2.6
- Kd (human FcRn [13]): 1600 nM
B6: 04H1389-Ks462/04L1615-k0MT//04H1389-Hs445/04L1615-k0MT (antibody, human IgG1, kappa)
heavy 1: B1 heavy 1 with C354Y, A439N, T441Y, R443Q, E445S
heavy 2: B1 heavy 2 with C361E, A439N, T441Y, R443Q, E445S
light: B1 light
notes: Heterodimerized antibody

- Binding amount [1]: 0.026
- Kd [2]: 0.051 nM
- Kd [3]: 160 nM
- Kd [4]: 75 nM
- Kd [5]: 2.3 nM
- Kd [6]: 1.2 nM
- Relative value to KD between G1m and hFcRn (human FcRn [7]): 2.9
- Relative value to KD between G1m and hFcγRs [8]: 0.9
- Relative value to KD between G1m and hFcγRs [9]: 9
- Relative value to KD between G1m and hFcγRs [10]: 14.1
- Relative value to KD between G1m and hFcγRs [11]: 760
- Relative binding amount [12]: 2.3
- Kd (human FcRn [13]): 450 nM
B7: 04H1389-Ks473/04L1615-k0MT//04H1389-Hs482/04L1615-k0MT (antibody)
heavy 1: B1 heavy 1 with C354Y
heavy 2: B1 heavy 2 with C361E
light: B1 light
notes: as for B1
